Test results as given in PMC6099280, “Characterisation of a putative glutamate 5‐kinase from Leishmania donovani” (The Febs Journal, 2018).

How the values were obtained:
[1] = target: T1, LdG5K (Leishmania donovani, UniProt A0A0R6Y3I5); test: PK/LDH-coupled NADH oxidation assay; assay type: biochemical
T1 construct: gene G5K; tetramer about 105 kDa
T1 sequence (A0A0R6Y3I5 1-263): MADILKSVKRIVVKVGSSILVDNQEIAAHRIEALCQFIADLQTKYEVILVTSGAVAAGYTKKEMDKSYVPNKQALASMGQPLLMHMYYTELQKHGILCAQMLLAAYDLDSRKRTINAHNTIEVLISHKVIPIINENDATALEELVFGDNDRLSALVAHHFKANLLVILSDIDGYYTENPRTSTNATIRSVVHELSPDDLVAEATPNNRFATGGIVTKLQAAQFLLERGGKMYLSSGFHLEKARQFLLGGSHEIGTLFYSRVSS
Excerpt: (§1) PK/LDH-coupled NADH oxidation assay on LdG5K

[2] = target: T1, LdG5K; test: PK/LDH-coupled NADH oxidation assay, single point; assay type: biochemical; settings: 1 mM compound; 100 mM Na glutamate, 5 mM ATP, 5 mM MgCl2, pH 7.4, 25 °C
Excerpt: PK/LDH-coupled NADH oxidation assay, single point on LdG5K

[3] = substrate: N[C@@H](CCC(=O)O)C(=O)O; test: PK/LDH-coupled NADH oxidation assay; assay type: biochemical, Leishmania donovani; settings: 5 mM ATP, 5 mM MgCl2, pH 7.4, 25 °C, no proline
Excerpt: as §1

[4] = substrate: Nc1ncnc2c1ncn2[C@@H]1O[C@H](COP(=O)(O)OP(=O)(O)OP(=O)(O)O)[C@@H](O)[C@H]1O; test: PK/LDH-coupled NADH oxidation assay; assay type: biochemical, Leishmania donovani; settings: 150 mM Na glutamate, 5 mM MgCl2, pH 7.4, 25 °C
Excerpt: as §1

[5] = substrate: N[C@@H](CCC(=O)O)C(=O)O; test: PK/LDH-coupled NADH oxidation assay, Hill fit; assay type: biochemical, Leishmania donovani; settings: no proline, Hill slope 0.94 ± 0.09, pH 7.4, 25 °C
[6] = target: the molecule itself; test: SEC; Superdex 200 H/R 10/30, 50 mM Tris-HCl pH 7.2, 0.15 M NaCl, 0.5 mL/min, room temperature; mass estimated against protein standards; no proline

Q: For O=C(O)[C@@H]1CCCN1 [L‐proline], which IC50 [1] is on record?
A: Its IC50 is 390 ± 80 µM.

Q: For O=C(O)[C@H]1CN[C@H](C(=O)O)C1 [L‐trans‐pyrrolidine‐2,4‐dicarboxylic acid], which “LdG5K activity (%) with 1 mM” value [2] is on record?
A: Its value is 84%.

Q: For C[C@@]1(C(=O)O)CCCN1 [α‐methyl‐L‐proline], which “LdG5K activity (%) with 1 mM” value [2] is on record?
A: Its value is 82%.

Q: For O=C(O)[C@@H]1CSCN1 [L‐4‐thioproline], which IC50 [1] is on record?
A: The IC50 was 1800 ± 200 µM.

Q: With O=C(O)C1C=CCN1 (racemic) [3,4‐dehydro‐D,L‐proline] as the molecule, how does the IC50 [1] read?
A: The IC50 was 490 ± 20 µM.

Q: O=C(O)[C@@H]1C[C@@H](O)CN1 [Trans‐4‐hydroxy‐L‐proline] was tested. Which “LdG5K activity (%) with 1 mM” value [2] did it give?
A: Its value is 89%.

Q: For O=C(O)[C@@H]1C[C@H](O)CN1 [Cis‐4‐hydroxy‐L‐proline], which “LdG5K activity (%) with 1 mM” value [2] is on record?
A: Its value is 87%.

Q: With O=C(O)[C@@H]1CCN1 [L‐azetidine‐2‐carboxylic acid] as the molecule, how does the IC50 [1] read?
A: The IC50 was 730 ± 70 µM.

B1: Leishmania donovani glutamate 5-kinase (enzyme, UniProt A0A0R6Y3I5 1-263, looked up)
chain: MADILKSVKRIVVKVGSSILVDNQEIAAHRIEALCQFIADLQTKYEVILVTSGAVAAGYTKKEMDKSYVPNKQALASMGQPLLMHMYYTELQKHGILCAQMLLAAYDLDSRKRTINAHNTIEVLISHKVIPIINENDATALEELVFGDNDRLSALVAHHFKANLLVILSDIDGYYTENPRTSTNATIRSVVHELSPDDLVAEATPNNRFATGGIVTKLQAAQFLLERGGKMYLSSGFHLEKARQFLLGGSHEIGTLFYSRVSS
notes: theoretical Mr 29.033 kDa; Cloned through BamHI/EcoRI into a modified pGEX-6P-1 with an in-frame N-terminal His-GST tag; also called LdG5K; G5K; source: E. coli C41(DE3) pLysS, purified (glutathione resin, on-column cleavage by PreScission protease); not shown: His, N-terminal, cleaved; GST, N-terminal, cleaved
Q: What does the source list for B1?
A: Km [3]: 10 ± 0.7 mM; kcat [3]: 12.8 ± 0.3 s⁻¹; kcat/Km [3]: 1280 M⁻¹ s⁻¹; Km [4]: 0.6 ± 0.07 mM; kcat [4]: 11.7 ± 0.3 s⁻¹; kcat/Km [4]: 19500 M⁻¹ s⁻¹; K0.5 [5]: 19.0 ± 2.9 mM; kcat [5]: 13.5 ± 0.6 s⁻¹; stoichiometry N [6]: 4
